Reference: patent publication EP4688000A1 (dated 2026)

How the values were obtained:
[1] = molecular target: T1, human integrin α6β1 on CHO-S cells (CHO-S-human ITGA6B1-#24) (human, UniProt P05556 21-798; P23229 24-1130); assay: flow cytometry on CHO-S-human ITGA6B1-#24 cells
T1 construct: whole, on cells; also called human ITGB1

[2] = molecular target: T2, mouse integrin α6β4 on cells (CHO-S-murine ITGA6B4-#12; 4T1) (mouse, UniProt A2A863 29-1818; Q61739 24-1091); assay: flow cytometry on 4T1 and CHO-S-murine ITGA6B4-#12 cells
T2 construct: whole, on cells; also called mouse ITGB4; CHO-S-mouse ITGB4
T2 sequence (A2A863 29-1818, chain 1 of 2): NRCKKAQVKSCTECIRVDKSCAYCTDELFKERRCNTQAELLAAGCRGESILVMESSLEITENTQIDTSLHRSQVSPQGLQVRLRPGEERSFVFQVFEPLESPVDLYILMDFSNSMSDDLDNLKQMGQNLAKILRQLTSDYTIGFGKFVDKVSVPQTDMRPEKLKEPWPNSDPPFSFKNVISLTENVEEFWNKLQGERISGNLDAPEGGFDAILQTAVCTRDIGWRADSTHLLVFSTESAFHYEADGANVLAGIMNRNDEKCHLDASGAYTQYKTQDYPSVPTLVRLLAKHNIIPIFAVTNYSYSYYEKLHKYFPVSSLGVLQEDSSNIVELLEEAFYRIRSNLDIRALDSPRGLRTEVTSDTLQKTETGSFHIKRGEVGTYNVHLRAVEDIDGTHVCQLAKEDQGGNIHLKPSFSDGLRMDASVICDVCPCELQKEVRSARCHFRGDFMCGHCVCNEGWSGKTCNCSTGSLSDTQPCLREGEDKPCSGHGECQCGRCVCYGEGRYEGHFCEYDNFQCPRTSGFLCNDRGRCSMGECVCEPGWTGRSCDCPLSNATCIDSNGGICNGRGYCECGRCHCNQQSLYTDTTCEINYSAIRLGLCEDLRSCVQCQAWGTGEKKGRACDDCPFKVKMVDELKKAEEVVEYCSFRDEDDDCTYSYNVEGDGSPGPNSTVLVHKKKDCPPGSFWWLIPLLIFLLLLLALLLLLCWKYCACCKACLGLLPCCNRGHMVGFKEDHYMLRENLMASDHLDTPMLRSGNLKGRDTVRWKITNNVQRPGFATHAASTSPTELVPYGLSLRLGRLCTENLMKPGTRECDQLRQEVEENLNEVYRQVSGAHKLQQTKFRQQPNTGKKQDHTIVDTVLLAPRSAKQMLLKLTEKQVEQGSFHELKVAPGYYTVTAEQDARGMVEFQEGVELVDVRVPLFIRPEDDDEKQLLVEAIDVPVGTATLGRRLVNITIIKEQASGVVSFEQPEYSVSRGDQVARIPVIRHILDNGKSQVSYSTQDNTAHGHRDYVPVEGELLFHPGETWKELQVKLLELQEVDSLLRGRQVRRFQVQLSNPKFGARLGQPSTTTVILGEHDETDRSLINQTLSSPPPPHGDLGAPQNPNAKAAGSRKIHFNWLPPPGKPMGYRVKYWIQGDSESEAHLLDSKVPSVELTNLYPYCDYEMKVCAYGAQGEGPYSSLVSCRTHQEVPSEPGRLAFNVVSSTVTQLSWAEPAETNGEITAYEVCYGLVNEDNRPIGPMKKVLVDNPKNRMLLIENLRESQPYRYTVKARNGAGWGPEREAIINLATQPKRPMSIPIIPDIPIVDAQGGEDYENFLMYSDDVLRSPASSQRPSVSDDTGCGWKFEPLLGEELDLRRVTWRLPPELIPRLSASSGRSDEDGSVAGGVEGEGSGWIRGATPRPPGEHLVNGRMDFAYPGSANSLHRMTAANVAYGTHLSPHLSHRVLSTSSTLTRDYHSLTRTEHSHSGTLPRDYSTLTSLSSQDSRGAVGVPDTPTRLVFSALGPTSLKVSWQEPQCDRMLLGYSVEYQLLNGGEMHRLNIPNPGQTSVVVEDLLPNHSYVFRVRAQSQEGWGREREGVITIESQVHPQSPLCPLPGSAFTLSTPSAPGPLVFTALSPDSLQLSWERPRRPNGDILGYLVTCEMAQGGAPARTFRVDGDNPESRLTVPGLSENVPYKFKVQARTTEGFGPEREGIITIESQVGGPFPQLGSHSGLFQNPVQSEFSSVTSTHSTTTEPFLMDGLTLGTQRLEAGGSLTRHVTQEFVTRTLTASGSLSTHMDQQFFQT
T2 sequence (Q61739 24-1091, chain 2 of 2): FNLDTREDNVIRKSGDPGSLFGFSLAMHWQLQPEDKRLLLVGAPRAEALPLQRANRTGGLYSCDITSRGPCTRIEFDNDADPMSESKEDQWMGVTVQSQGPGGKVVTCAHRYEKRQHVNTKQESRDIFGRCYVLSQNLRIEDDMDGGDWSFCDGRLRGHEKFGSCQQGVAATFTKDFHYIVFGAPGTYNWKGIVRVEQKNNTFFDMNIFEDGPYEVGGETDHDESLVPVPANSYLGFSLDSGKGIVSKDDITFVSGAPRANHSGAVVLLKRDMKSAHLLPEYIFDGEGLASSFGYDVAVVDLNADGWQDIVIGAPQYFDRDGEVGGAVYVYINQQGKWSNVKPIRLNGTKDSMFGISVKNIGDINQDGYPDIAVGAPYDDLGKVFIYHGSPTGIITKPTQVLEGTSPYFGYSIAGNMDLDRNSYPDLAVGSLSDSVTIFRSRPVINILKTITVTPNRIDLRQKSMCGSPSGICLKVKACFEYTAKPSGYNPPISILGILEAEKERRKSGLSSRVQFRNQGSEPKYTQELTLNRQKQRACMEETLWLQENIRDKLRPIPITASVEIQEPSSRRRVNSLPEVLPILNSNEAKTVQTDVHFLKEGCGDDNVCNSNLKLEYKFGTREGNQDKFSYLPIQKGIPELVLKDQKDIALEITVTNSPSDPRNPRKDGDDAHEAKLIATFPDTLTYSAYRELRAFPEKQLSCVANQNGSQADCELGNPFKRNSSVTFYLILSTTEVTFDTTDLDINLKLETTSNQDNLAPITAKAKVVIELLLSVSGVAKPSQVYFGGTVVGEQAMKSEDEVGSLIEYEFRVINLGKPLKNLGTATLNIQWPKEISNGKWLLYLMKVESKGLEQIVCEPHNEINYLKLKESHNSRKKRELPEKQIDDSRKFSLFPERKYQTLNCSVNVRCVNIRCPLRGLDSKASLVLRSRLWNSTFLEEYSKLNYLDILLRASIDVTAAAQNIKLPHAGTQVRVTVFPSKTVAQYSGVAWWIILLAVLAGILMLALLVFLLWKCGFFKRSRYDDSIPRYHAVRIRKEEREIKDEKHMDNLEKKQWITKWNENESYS

T1 sequence (P05556 21-798, chain 1 of 2): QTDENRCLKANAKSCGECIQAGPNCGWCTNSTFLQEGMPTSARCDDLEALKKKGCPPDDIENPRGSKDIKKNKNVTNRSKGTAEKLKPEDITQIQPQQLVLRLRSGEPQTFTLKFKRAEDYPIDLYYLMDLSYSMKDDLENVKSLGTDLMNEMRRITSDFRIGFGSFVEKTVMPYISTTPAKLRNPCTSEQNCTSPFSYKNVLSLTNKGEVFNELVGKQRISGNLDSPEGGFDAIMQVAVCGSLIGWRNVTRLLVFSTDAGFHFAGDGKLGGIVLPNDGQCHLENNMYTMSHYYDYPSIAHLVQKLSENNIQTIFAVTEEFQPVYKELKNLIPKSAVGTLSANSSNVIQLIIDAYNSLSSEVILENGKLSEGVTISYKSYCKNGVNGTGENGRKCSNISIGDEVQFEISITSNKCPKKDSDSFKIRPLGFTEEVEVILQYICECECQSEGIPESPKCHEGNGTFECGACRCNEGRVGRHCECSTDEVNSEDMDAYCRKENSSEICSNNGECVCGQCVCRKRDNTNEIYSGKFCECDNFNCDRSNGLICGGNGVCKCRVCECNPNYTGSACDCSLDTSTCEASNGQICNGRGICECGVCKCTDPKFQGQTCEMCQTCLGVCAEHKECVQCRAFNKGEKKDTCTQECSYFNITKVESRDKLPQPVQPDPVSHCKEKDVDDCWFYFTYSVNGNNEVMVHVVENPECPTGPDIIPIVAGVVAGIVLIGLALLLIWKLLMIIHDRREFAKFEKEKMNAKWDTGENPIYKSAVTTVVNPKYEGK
T1 sequence (P23229 24-1130, chain 2 of 2): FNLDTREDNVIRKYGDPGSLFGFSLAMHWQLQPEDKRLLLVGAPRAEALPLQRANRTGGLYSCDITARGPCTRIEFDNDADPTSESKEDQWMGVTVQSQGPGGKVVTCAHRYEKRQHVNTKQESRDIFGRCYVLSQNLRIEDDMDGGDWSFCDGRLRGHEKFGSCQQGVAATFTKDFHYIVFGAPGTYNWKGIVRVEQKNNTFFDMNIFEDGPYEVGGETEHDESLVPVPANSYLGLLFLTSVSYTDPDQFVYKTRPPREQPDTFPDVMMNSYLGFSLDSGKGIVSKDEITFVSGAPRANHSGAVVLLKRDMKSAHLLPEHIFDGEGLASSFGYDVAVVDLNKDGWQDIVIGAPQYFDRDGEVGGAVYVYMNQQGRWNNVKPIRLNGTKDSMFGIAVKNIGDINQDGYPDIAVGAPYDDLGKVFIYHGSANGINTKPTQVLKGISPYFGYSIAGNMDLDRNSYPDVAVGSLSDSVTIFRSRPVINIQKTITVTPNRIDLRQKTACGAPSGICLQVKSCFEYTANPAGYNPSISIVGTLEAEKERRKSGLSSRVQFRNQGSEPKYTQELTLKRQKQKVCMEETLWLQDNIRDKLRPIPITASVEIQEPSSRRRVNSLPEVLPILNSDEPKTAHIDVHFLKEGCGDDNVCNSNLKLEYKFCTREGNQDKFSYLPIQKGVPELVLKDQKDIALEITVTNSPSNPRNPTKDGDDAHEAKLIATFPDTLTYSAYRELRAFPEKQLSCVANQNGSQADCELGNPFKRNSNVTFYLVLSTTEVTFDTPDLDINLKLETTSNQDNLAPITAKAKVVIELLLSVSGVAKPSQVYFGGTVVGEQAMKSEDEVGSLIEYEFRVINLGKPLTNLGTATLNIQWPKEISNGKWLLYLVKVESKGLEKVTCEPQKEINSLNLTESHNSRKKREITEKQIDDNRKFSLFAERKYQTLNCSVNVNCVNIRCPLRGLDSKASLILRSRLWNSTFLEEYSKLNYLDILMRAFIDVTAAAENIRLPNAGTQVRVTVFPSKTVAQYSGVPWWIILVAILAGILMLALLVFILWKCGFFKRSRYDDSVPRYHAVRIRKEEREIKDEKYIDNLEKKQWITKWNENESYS

binding result [1]: no binding
binding result [2]: no binding
B1: anti-ITGB4 antibody 008 (parental clone) (antibody, V domains shown)
VH: QVQLKQSGPSLVQPSQSLSITCTVSGFSLTSYGVHWFRQSPGKGLEWLGVIWRGGNTDYNAAFMSRLSITKDNSKSQVFFKMNSLQPDDTAIYYCVKNYRFGGSAYWGQGTLVTVSA
VL: DIQMTQTTSSLSASLGDRVTISCRASQDISNHLNWYQQKPDGTVKLLIYYTSTLHSGVPSRFSGSGSGTDYSLTISNLEPEDIATYYCQQDLNLPWTFGGGTKLEIK
notes: In the assays it was captured on anti-human IgG Fc sensors and detected with anti-human IgG, so the tested form carries a human Fc; also called 008 clone
